# Where two headings read alike, the source gives them in different places.
# How the values were obtained:
# [1] = molecular target: T1, 4H963-AA; assay: two-hybrid library CCmax; details: mean of both orientations;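 note: natural log of median RNA to DNA barcode read ratio; higher means stronger binding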
# T1 chain: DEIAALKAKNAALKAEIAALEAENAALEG
# [2] = molecular target: T2, 4H688-AA; assay: two-hybrid library CCmax;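 note: natural log of median RNA to DNA barcode read ratio; higher means stronger binding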
# T2 chain: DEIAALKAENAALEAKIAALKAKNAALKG
# [3] = molecular target: T3, 4H591-bH; assay: two-hybrid library CCNG1;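 note: natural log of median RNA to DNA barcode read ratio; higher means stronger binding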
# T3 chain: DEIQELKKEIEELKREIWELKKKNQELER
# [4] = molecular target: T4, 4H906-bH; assay: two-hybrid library CCNG1;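 note: natural log of median RNA to DNA barcode read ratio; higher means stronger binding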
# T4 chain: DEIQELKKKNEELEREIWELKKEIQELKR
# [5] = molecular target: T5, 4H626-bH; assay: two-hybrid library CCNG1;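 note: natural log of median RNA to DNA barcode read ratio; higher means stronger binding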
# T5 chain: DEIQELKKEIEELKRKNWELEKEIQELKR
# [6] = molecular target: T6, 4H967-AA; assay: two-hybrid library CCmax; details: mean of both orientations;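 note: natural log of median RNA to DNA barcode read ratio; higher means stronger binding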
# T6 chain: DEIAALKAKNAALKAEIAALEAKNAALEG
# [7] = molecular target: T7, 4H953-AA; assay: two-hybrid library CCmax
# T7 chain: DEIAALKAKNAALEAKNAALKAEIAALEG
# [8] = molecular target: T8, 4H3625-AA; assay: two-hybrid library CCmax; details: mean of both orientations
# T8 chain: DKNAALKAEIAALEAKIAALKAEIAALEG
# [9] = molecular target: T9, 4H390-AA; assay: two-hybrid library CCmax; details: mean of both orientations
# T9 chain: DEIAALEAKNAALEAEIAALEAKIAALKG
# [10] = molecular target: T10, 4H3940-AA; assay: two-hybrid library CCmax; details: mean of both orientations
# T10 chain: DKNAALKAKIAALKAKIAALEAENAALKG
# [11] = molecular target: T11, 4H87-AA; assay: two-hybrid library CCmax; details: mean of both orientations
# T11 chain: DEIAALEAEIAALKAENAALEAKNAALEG
# [12] = molecular target: T12, 4H816-AA; assay: two-hybrid library CCmax; details: mean of both orientations
# T12 chain: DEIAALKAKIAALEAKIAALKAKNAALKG
# [13] = molecular target: T13, 4H3409-AA; assay: two-hybrid library CCmax
# T13 chain: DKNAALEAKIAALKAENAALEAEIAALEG
# [14] = molecular target: T14, 4H775-AA; assay: two-hybrid library CCmax; details: mean of both orientations
# T14 chain: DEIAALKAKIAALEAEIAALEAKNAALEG
# [15] = molecular target: T15, 4H510-AA; assay: two-hybrid library CCmax; details: mean of both orientations
# T15 chain: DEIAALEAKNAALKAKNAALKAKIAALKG
# [16] = molecular target: T16, 4H3297-bN; assay: two-hybrid library CCNG1
# T16 chain: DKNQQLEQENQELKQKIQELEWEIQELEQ
# [17] = molecular target: T17, 4H3364-bN; assay: two-hybrid library CCNG1
# T17 chain: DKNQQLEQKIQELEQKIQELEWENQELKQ
# [18] = molecular target: T18, 4H349-bN; assay: two-hybrid library CCNG1
# T18 chain: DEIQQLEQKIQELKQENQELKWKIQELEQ
# [19] = molecular target: T19, 4H932-bN; assay: two-hybrid library CCNG1
# T19 chain: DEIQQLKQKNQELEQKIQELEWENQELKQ
# [20] = molecular target: T20, 4H56-bN; assay: two-hybrid library CCNG1
# T20 chain: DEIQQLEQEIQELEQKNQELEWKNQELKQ
# [21] = molecular target: T21, 4H3381-bN; assay: two-hybrid library CCNG1
# T21 chain: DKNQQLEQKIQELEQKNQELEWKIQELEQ
# [22] = molecular target: T22, 4H730-bN; assay: two-hybrid library CCNG1
# T22 chain: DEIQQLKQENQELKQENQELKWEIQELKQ
# [23] = molecular target: T23, 4H949-bN; assay: two-hybrid library CCNG1
# T23 chain: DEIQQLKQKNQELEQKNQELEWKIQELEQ
# [24] = molecular target: T24, 4H796-bN; assay: two-hybrid library CCNG1
# T24 chain: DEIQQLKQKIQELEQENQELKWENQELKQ
# [25] = molecular target: T25, 4H2698-AA; assay: two-hybrid library CCmax; details: mean of both orientations
# T25 chain: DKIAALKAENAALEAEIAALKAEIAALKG
# [26] = molecular target: T26, 4H930-AA; assay: two-hybrid library CCmax; details: mean of both orientations
# T26 chain: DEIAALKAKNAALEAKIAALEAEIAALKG
# [27] = molecular target: T27, 4H797-AA; assay: two-hybrid library CCmax; details: mean of both orientations
# T27 chain: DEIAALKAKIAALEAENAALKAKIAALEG
# [28] = molecular target: T28, 4H310-AA; assay: two-hybrid library CCmax; details: mean of both orientations
# T28 chain: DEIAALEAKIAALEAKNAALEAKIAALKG
# [29] = molecular target: T29, 4H850-AA; assay: two-hybrid library CCmax; details: mean of both orientations
# T29 chain: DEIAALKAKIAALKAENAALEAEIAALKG
# [30] = molecular target: T30, 4H3410-AA; assay: two-hybrid library CCmax; details: mean of both orientations
# T30 chain: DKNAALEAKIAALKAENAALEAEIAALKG
# [31] = molecular target: T31, 4H3865-AA; assay: two-hybrid library CCmax; details: mean of both orientations
# T31 chain: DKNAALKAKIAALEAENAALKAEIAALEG
# [32] = molecular target: T32, 4H2389-AA; assay: two-hybrid library CCmax
# T32 chain: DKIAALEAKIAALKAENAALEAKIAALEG
# [33] = molecular target: T33, 4H94-AA; assay: two-hybrid library CCmax; details: mean of both orientations
# T33 chain: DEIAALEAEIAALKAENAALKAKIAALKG
# [34] = molecular target: T34, 4H2649-AA; assay: two-hybrid library CCmax; details: mean of both orientations
# T34 chain: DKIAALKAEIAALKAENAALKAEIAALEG
# [35] = molecular target: T35, 4H2725-AA; assay: two-hybrid library CCmax; details: mean of both orientations
# T35 chain: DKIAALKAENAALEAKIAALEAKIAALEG
# [36] = molecular target: T36, 4H2473-AA; assay: two-hybrid library CCmax; details: mean of both orientations
# T36 chain: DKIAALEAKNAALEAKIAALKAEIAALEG
# [37] = molecular target: T37, 4H745-AA; assay: two-hybrid library CCmax; details: mean of both orientations
# T37 chain: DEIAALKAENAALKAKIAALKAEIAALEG
# [38] = molecular target: T38, 4H891-AA; assay: two-hybrid library CCmax; details: mean of both orientations
# T38 chain: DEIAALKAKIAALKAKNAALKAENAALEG
# [39] = molecular target: T39, 4H710-AA; assay: two-hybrid library CCmax; details: mean of both orientations
# T39 chain: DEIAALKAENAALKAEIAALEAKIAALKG
# [40] = molecular target: T40, 4H485-AA; assay: two-hybrid library CCmax
# T40 chain: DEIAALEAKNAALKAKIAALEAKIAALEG
# [41] = molecular target: T41, 4H3395-AA; assay: two-hybrid library CCmax; details: mean of both orientations
# T41 chain: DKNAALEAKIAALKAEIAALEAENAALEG
# [42] = molecular target: T42, 4H3381-AA; assay: two-hybrid library CCmax; details: mean of both orientations
# T42 chain: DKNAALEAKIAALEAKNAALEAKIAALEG
# [43] = molecular target: T43, 4H3130-AA; assay: two-hybrid library CCmax; details: mean of both orientations
# T43 chain: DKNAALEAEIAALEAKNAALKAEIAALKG
# [44] = molecular target: T44, 4H3697-AA; assay: two-hybrid library CCmax; details: mean of both orientations
# T44 chain: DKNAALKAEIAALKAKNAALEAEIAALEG
# [45] = molecular target: T45, 4H629-AA; assay: two-hybrid library CCmax; details: mean of both orientations
# T45 chain: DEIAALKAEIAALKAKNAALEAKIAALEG
# [46] = molecular target: T46, 4H2438-AA; assay: two-hybrid library CCmax; details: mean of both orientations
# T46 chain: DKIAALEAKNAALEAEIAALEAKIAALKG
# [47] = molecular target: T47, 4H2865-AA; assay: two-hybrid library CCmax; details: mean of both orientations
# T47 chain: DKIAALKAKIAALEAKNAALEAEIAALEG
# [48] = molecular target: T48, 4H570-AA; assay: two-hybrid library CCmax; details: mean of both orientations
# T48 chain: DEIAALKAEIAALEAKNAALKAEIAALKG
# [49] = molecular target: T49, 4H3590-AA; assay: two-hybrid library CCmax; details: mean of both orientations
# T49 chain: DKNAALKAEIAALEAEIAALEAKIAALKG
# [50] = molecular target: T50, 4H536-AA; assay: two-hybrid library CCmax; details: mean of both orientations
# T50 chain: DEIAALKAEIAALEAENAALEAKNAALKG
# [51] = molecular target: T51, 4H3165-AA; assay: two-hybrid library CCmax; details: mean of both orientations
# T51 chain: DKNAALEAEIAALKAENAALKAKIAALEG
# [52] = molecular target: T52, 4H3016-AA; assay: two-hybrid library CCmax; details: mean of both orientations
# T52 chain: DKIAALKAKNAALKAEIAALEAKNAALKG
# [53] = molecular target: T53, 4H3753-AA; assay: two-hybrid library CCmax; details: mean of both orientations
# T53 chain: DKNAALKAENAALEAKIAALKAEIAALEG
# [54] = molecular target: T54, 4H458-AA; assay: two-hybrid library CCmax; details: mean of both orientations
# T54 chain: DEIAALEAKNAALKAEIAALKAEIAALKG
# [55] = molecular target: T55, 4H3120-AA; assay: two-hybrid library CCmax; details: mean of both orientations
# T55 chain: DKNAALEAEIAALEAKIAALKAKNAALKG
# [56] = molecular target: T56, 4H3009-AA; assay: two-hybrid library CCmax; details: mean of both orientations
# T56 chain: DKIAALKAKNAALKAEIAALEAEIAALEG
# [57] = molecular target: T57, 4H909-AA; assay: two-hybrid library CCmax; details: mean of both orientations
# T57 chain: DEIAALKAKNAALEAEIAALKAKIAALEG
# [58] = molecular target: T58, 4H406-AA; assay: two-hybrid library CCmax
# T58 chain: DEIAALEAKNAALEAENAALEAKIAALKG
# [59] = molecular target: T59, 4H_BCR; assay: two-hybrid library CCmax; details: mean of both orientations
# T59 chain: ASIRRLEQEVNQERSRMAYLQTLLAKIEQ
# [60] = molecular target: T60, 4H_APH; assay: two-hybrid library CCmax; details: mean of both orientations
# T60 chain: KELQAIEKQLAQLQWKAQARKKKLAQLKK
# [61] = molecular target: GCN2_T; assay: two-hybrid library CCmax
# [62] = molecular target: T61, 4H452-AA; assay: two-hybrid library CCmax; details: mean of both orientations
# T61 chain: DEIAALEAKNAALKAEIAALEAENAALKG
# [63] = molecular target: T62, 4H56-AA; assay: two-hybrid library CCmax; details: mean of both orientations
# T62 chain: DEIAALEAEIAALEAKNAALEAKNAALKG
# [64] = molecular target: 4H_GCN4; assay: two-hybrid library CCmax
# Sequence of 4H_GCN4 (chain, as listed by the source): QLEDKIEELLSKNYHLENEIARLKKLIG
binder,measurement,setting,value
DEIAALKAENAALEAKIAALKAKNAALKG [4H688-AA],interaction score,[1],1.46
same,interaction score,[2],-1.23
DEIQELKKEIEELKREIWELKKKNQELER [4H591-bH],interaction score,[3],1.58
same,interaction score,[4],-0.784
same,interaction score,[5],-0.53
DEIAALKAKNAALEAKNAALKAEIAALEG [4H953-AA],interaction score,[6],-1.73
same,interaction score,[7],-1.02
DKNAALEAKIAALKAENAALEAEIAALEG [4H3409-AA],interaction score,[8],-0.625
same,interaction score,[9],-1.28
same,interaction score,[10],-1.12
same,interaction score,[11],-1.93
same,interaction score,[12],-1.37
same,interaction score,[13],-1.02
same,interaction score,[14],-1.25
same,interaction score,[15],0.697
DKNQQLEQENQELKQKIQELEWEIQELEQ [4H3297-bN],interaction score,[16],-0.0469
same,interaction score,[17],-0.913
same,interaction score,[18],-2.11
same,interaction score,[19],-1.21
same,interaction score,[20],-0.798
same,interaction score,[21],-1.01
same,interaction score,[22],-0.799
same,interaction score,[23],-1.29
same,interaction score,[24],-0.556
DKIAALEAKIAALKAENAALEAKIAALEG [4H2389-AA],interaction score,[25],-0.843
same,interaction score,[26],-0.305
same,interaction score,[27],1.3
same,interaction score,[28],1.8
same,interaction score,[29],-0.804
same,interaction score,[30],-1.2
same,interaction score,[31],-0.601
same,interaction score,[32],2.02
same,interaction score,[33],1.99
same,interaction score,[34],1.07
same,interaction score,[35],-0.942
same,interaction score,[36],-1.3
same,interaction score,[37],-1.25
same,interaction score,[38],-0.959
same,interaction score,[39],0.392
same,interaction score,[40],0.153
same,interaction score,[41],-1.54
same,interaction score,[42],-0.842
same,interaction score,[43],1.81
same,interaction score,[44],-1.74
same,interaction score,[45],-0.106
same,interaction score,[46],-0.27
same,interaction score,[47],1.02
same,interaction score,[48],1.65
same,interaction score,[49],-0.0915
same,interaction score,[50],-0.282
same,interaction score,[51],0.858
same,interaction score,[52],0.227
same,interaction score,[53],-1.26
same,interaction score,[54],-0.364
same,interaction score,[55],-0.79
same,interaction score,[56],1.53
same,interaction score,[57],-1.35
DEIAALEAKNAALEAENAALEAKIAALKG [4H406-AA],interaction score,[58],-0.644
same,interaction score,[59],-2.11
same,interaction score,[60],-1.29
same,interaction score,[61],-1.43
same,interaction score,[1],-1.6
same,interaction score,[62],-0.548
same,interaction score,[63],-1.47
same,interaction score,[2]; mean of both orientations,-1.54
same,interaction score,[64],-1.67

# From publication PMC10397247
